# Experimental data: the DeepSol protein solubility set
# Experiment: soluble on expression in E. coli; label from the status in PepcDB or PDB records
row,Sequence,soluble on expression in E. coli
1,GSPEFMELEIRPLFLVPDTNGFIDHLASLARLLESRKYILVVPLIVINELDGLAKGQETDHRAGGYARVVQEKARKSIEFLEQRFESRDSCLRALTSRGNELESIAFRSEDITGQLGNNDDLILSCCLHYCKDKAKDFMPASKEEPIRLLREVVLLTDDRNLRVKALTRNVPVRDIPAFLTWAQVG,soluble
2,GTEDTVIKVSVLRGPSVIAFADWLENPPIIDNKKVQVKVVDSPDLAQALLIKQETDIAVLPMINAANLYNKGIKIKLAGCPIWGTLYLVEKTPLKEPALYVFGNGTTPDILTRYYLGRQRLDYPLNYAFNTAGEITQGILAGKVNRAVLGEPFLSIALRKDSSLRITADLNHLTDNDTLGFAQTAVVYTPTMEKYRIAFEDALRASCQKAVRYPKETIHSLEEHGIFAQGALTPKSIERCKIYYLSAIEAKDAVMGFLRLIEQYEPKAVGGRLPDAGFIPEKQ,soluble
3,GTEVEIPVVHDPKGEAVLPSVFEDGTRQGWDWAGESGVKTALTIEEANGSNALSWEFGYPEVKPSDNWATAPRLDFWKSDLVRGENDYVTFDFYLDPVRATEGAMNINLVFQPPTNGYWVQAPKTYTINFDELEEANQVNGLYHYEVKINVRDITNIQDDTLLRNMMIIFADVESDFAGRVFVDNVRFEGA,soluble
4,GTKMEPMEYLVVDVPSEFQGAIIEKMGPRKGEMTSLQPMGETVRLEFVVPARGLIGLRGELLTETRGTAVMTHTFHDYAPYKGDIPGRKNGVLIAMELGETTAYALDALQPRGILFIGPGVEVYGGMI,not soluble
5,GVLPVEKCNLEDSACMTSAFQQALPTFVAGLPDHGVEVMDVLDLDDFAFDLSGLQFTLKEGKLKGLKGAVIDNVKWDLKKKNIEVDFHLDATVKGHYTAGGRILILPITGDGQMKLKLKNIHIHLVVSYEMEKDAEGVDHVIFKKYTVTFDVKDNAQFGLTNLFNGNKELSDTMLTFLNQNWKQVSEEFGKPVMEAAAKKIFKNIKHFLAKVPIAEIANV,soluble
6,GVRNLAQGPRGCEHYDRACLLKAPCCDKLYTCRLCHDTNEDHQLDRFKVKEVQCINCEKLQHAQQTCEDCSTLFGEYYCSICHLFDKDKRQYHCESCGICRIGPKEDFFHCLKCNLCLTTNLRGKHKCIE,soluble
7,GVSETAPASRRGELAVCDAVSGWVTDRRTAVDLRGREVEVLGEVPAAGGSPLRQYFFETRCKADNAEEGGPGAGGGGCRGVDRRHWVSECKAKQSYVRALTADAQGRVGWRWIRIDTACVCTLLSRTGRA,soluble
8,GVTKEIRIPTLEECDVCHGSGAKPGTQPQTCPTCHGSGQVQMRQGFFAVQQTCPHCQGRGTLIKDPCNKCHGHGRVERS,soluble
9,GVVIREALSSSNAVPAIDFDRKELIDIPAYQGPGKNVVRPPVDLDPSYNPFKETGLTEPIRSSRRQSPDMGWNELFKQFEAKRDAEKMAEPPIRSEELFASTDFTPSAVSATPSTDMLCYVHRGRYLVTTLSRGLALVDFHRAHKRILYDRFMADESRRHIEQQQLLFPELLEFNPSDASAVKAAVDELQSVGFDLSPLGVSSYSLLAAPVQIIDCAADVVRDVIHTTLEDGRSSHEQMLELIATQIAEYQAIPCGKTPTAEEASDLLAELFASNDSTYTPDGKLIVSIIEEADIARRFE,not soluble
10,GWQAFKNDATEIIPELGEYPEPPPELENNKTMNRAENGGRPPHHPFETKDVSEYSCRELHFTRYVTDGPCRSAKPVTELVCSGQCGPARLLPNAIGRGKWWRPSGPDFRCIPDRYRAQRVQLLCPGGEAPRARKVRLVASCKCKRLTRFHNQSELKDFGTEAARPQKGRKPRPRARSAKANQAELENAY,soluble
11,HFVKSVEDKAISVTLAQGNIEQNLKWDPNYFYSTLAIYQKLITENLGKTDLIILPESALPTLENAITPFFEGLERAAKETKTEIMVGTVFQDTKSGKLLNSIMTAGNPDFPYQPNTQNRYNKHHLVPFGEYVPLESILRPLNSVFNLPMSAFQSGEAVQPSLIAKKRAFSPAICYEIIFGEQVRQNLKQDTDYLLTLSNDAWFGDSIGPWQHLQMARMRALELGKPLIRATNTGISVFVDAQGKVLAQAPQFIETTLTYKIAPAEGKTPYSVLGNMPLYALSLLFLLLHS,not soluble
12,HGPAPLDLDKYVEIARLCKYLPENDLKRLCDYVCDLLLEESNVQPVSTPVTVCGDIHGQFYDLCELFRTGGQVPDTNYIFMGDFVDRGYYSLETFTYLLALKAKWPDRITLLRGNHESRQITQVYGFYDECQTKYGNANAWRYCTKVFDMLTVAALIDEQILCVHGGLSPDIKTLDQIRTIERNQEIPHKGAFCDLVWSDPEDVDTWAISPRGAGWLFGAKVTNEFVHINNLKLICRAHQLVHEGYKFMFDEKLVTVWSAPNYCYRCGNIASIMVFKDVNTREPKLFRAVPDSVRASSPSPL,soluble
13,HISSQQHEKAIKSYFDEAQTQGVIIIKEGKNLSTYGNALARANKEYVPASTFKMLNALIGLENHKATTNEIFKWDGKKRTYPMWEKDMTLGEAMALSAVPVYQELARRTGLELMQKEVKRVNFGNTNIGTQVDNFWLVGPLKITPVQEVNFADDLAHNRLPFKLETQEEVKKMLLIKEVNGSKIYAKSGWGMGVTPQVGWLTGWVEQANGKKIPFSLNLEMKEGMSGSIRNEITYKSLENLGII,soluble
14,HRCVALCIETRPDYCGEKEINQMLKLGATRVELGVQTIYNEILEFCKRGHTVEDTIKATQLLKDSGLKVSYHLMPGMPGSDMEMDKKMFKEIFENPDFKPDMVKIYPCLVIEGTELYEMWKRGEYKPYREEEAIEIISYAKSIMPKWV,not soluble
15,IDEKGRVIIAGIGRFGQVVNRLVRMSGIETVVLDHDMAAVQIMRRFGVKGFFGDPTRPELLQAAGLAEATVLVVAVDDRENAIKIVRYARQVRPDLHIVSRARDRVHVYELYQAGADDIVRETFDSSIRAGRYVLENMGF,not soluble
16,IDIKDVELTADNGKPVYATFFCPKEEIKAAVVIAPALGVDKIFYQDFALWLASYGYLVTTFDYSSMGSADKVHYKESDTTITDWAVFDCKKILEQVSIEIKDKD,not soluble
17,IDKKLTTLADLFRPPIDLMHKGSFETAKECGQMQNKWLMINIQNVQDFACQCLNRDVWSNEAVKNIIREHFIFWQVYHDSEEGQRYIQFYKLGDFPYVSILDPRTGQKLVEWHQLDVSSFLDQVTGFLGEHGQLDGLSSS,soluble
18,IFIGNLDPEIDEKLLYDTFSAFGVILQTPKIMRDPDTGNSKGYAFINFASFDASDAAIEAMNGQYLCNRPITVSYAFKKDSKG,soluble
19,IGDFHYGIGASMSYLNTEVVNVNQAYQEYDYLYTKGNRIGQMYGLEAIGFFNSQQEINNSPQQTFSDVAPGDVKYKDQNGDNRIDEKDIVKMFGSSVPRFYFGFNLNFSYKRLELSADFQGMTGVTVSLLNSPLYSPLVSNGNISNTFLNEEISWTPENKTNATMPRLTTQENLNNYRASSLWYRDGSFLKLRNLLVAYTFPKSQTRFADLKVFVQGTNLFSLDNIHFADPEQLGIAYPSTRSYWAGIKLNF,not soluble
20,INYKQLQLQERTNIRKCQELLEQLNGKINLTYRADFKIPMEMTEKMQKSYTAFAIQEMLQNVFLVFRNNFSSTGWNETIVVRLLDELHQQTVFLKTVLEEKQEERLTWEMSSTALHLKSYYWRVQRYLKLMKYNSYAWMVVRAEIFRNFLIIRRLTRNFQN,soluble
21,IPMRLLSDCPQFSRKTVKLLTNGGDMLELCYELRLPFVHWISVNQKSSFKRYEISHVYRRAIGHSPPNPCLQADFDIVGGTLSLTEAEVLKVIVDITTHIFHRGSCDIHLNHGDLLDAIWSWAGIKAEHRRKVAELLSMMGSLRPQSSERKLKWVFIRRQLLQELKLPEAVVNRLQTVASRFCGDADQALPRLRGALRADRPTRKALDELSNLLTYLRVWRIEEHVHIDVLMPPTESYHRNLFFQVFLTKENSSGTSNDGVLLAVGGRYDWLVQEVCDREHKMNLPGAVGVSLALETIFQHLPMDLRPIRNEVSTSVLVCSRGGGGLLVQRMELVAELWEKSIKAEFVPTPDPSLTEQYEYANEHEIKCLVIITESGVAQNQIEFVKVRHLELKKEKVVGR,soluble
22,ISFEINGIKITTYPPPFRIFLEIDNKQEFEKLDRIRKNVDVVVLGFPVGHYDLDEVKNKVKQLVDYGYVVGIDAESPRELKEGVRAGASFVFNLNENNFEELEEIRKEAAFVVAPFNTENRGEITIDLVKKAKQKGFDKLIADPVLSPPLRGLVSSIIGYKYVRETLQDIPILMGILNVTELIDADSIGMNALLTAIAGELGISNLLIMEKGKTRWSSWEVSQATKMISVALKENRLPKDIGIDLLVLKDKRRFRESFNADVIVNRRIEPEMDNTGFAKIFVSEDGFGVEWIGKNKITIKGKDGLSIGRELIRRVKDISKEHAVYIGYELAKAEIAYQLDKNYIQDKPLF,not soluble
23,ISGFYMSIMRDITEKRSMELQLFKSEERFREIFENAMDAIIIWSNDGRIVKANQSACKIFELPMNLLLKRKLCDFLVDSQQKYSITKRKYAKYGEIREELLFQMGNGQFKELEFTSKRTILEN,not soluble
24,ISKETEEIDEQQVFIDSLSGHAQILYEKYHVLPSITIAQAILESDWGNSELAAKANNLFGVKGNYKGHHVTMETDEVEKGKRKTIRAKFRKYSTFFESMDDHAQLFVRGTSWNKKKYKPVLEAGNYKEAATALQTSGYATDPDYADKISAIVEKYDL,not soluble
25,ISRLLAGQLDFRSAIRSVAAEVAHIIPHDHLDVCVLLEDGNYHTAYETGIETAWGDLAGAPVVNSPIRSLLWGEVDFLLADDAMTDPRFHFDGAFKRPIVEQSLRSRLHVPMKVQGAIIAALSCSSQEAGAYTMEDVERARIIADLLTPYFFALRAAEQAQR,not soluble
26,ITASGENRNAINDLLGAMCYDEETARTYQGYVAELDNPHTPETEEYGISSFVFKGDRPFDRQRLIAALRSTRGIVRSKGHCWISDRIDMVQVWHQAGPDLRIAPAGYWQSAGITPSNEIVVIGVNFDHAQAQQLLNDAMLSDSEVQQLLSTADAAKS,not soluble
27,ITFEIAGDKLLMTLVPERLRGETASFDIEANGKVYVERGRRITARHIKALEKDNISQVVVPSEYILGKVASKDYVDLESGEIICPANGEISLETLAKLAQAG,not soluble
28,IVPDAQDLGKSYGIRPSFIIAQAALDSDFGEKILANKYHNLFGLLAEPGTPSITLNDSSTGKKQEKQFTHYKSWKYSMYDYLAHIKSGATGKKDSYTIMVSVKNPKTLVQKLQDSGFDNDKKYAKKMTEIIDLYDL,not soluble
29,KAAPEDVRMIMIDPKMLELSIYEGIPHLLAPVVTDMKLAANALNWCVNEMEKRYRLMSFMGVRNLAGFNQKIAEAAARGEKIGNPFSLTPDDPEPLEKLPFIVVVVDEFADLMMTAGKKIEELIARLAQKARAAGIHLILATQRPSVDVITGLIKANIPTRIAFQVSSKIDSRTILDQMGAENLLGQGDMLFLLPGTAYPQRVHGAFASDEEVHRVVEYLKQFGEPDYVDDILSGGGSEELPGIGRSGDDETDPMYDEAVSVVLKTRKASISGVQRALRIGYNRAARLIDQMEAEGIVSAPEHNGNRTILVPLDNA,not soluble
30,KAPNLYMTDTTGTYRYLYDVQAKYTILFFWDSQCGHCQQETPKLYDWWLKNRAKGIQVYAANIERKDEEWLKFIRSKKIGGWLNVRDSKNHTDFKITYDIYATPVLYVLDKNKVIIAKRIGYENLDDFLVQYEKSLKTK,not soluble
